According to the Human Domainome abundance scans (Beltran et al. 2025):

B1: Spectrin alpha chain, erythrocytic 1, residues 979 to 1036; numbered along this chain, P02549 (parent)
chain: EQRVMALYDFQARSPREVTMKKGDVLTLLSSINKDWWKVEAADHQGIVPAVYVRRLAH
B2: Histidine--tRNA ligase, cytoplasmic, residues 8 to 45; numbered along this chain, P12081 (parent)
chain: EELVKLQGERVRGLKQQKASAELIEEEVAKLLKLKAQL

Variants of: B1
Assay: abundance fitness (aPCA) (normalised: wild type 0, dead -1); higher = more abundant; growth selection in yeast, the domain comes from the species named
Conditions: Homo sapiens

Abundance fitness, by site and new letter:
A50: D -0.872, C -0.512, W -0.879, P -0.847, M -0.823, G -0.967, S 0.011, V -0.79, R 0.04, L -0.844
D43: H 0.129, A -0.314, S 0.096, L -0.876, N -0.105, V -0.537, R -0.708, T -0.223, P -0.552, G 0.567, W -0.622, I -0.387, Q 0.413
K38: I 0.097, R -0.033, C 0.284, Q 0.041, W -0.168, Y -0.311, S -0.301, P -0.701, G -0.832, M 0.083, V 0.303, F 0.208, H -0.016, T 0.373, E 0.281
V39: K -0.742, W -0.564, S -0.886, E -0.332, G -0.705, F -0.658, P -0.319, R -0.852
P49: N -0.694, L -0.887, G -0.44, V -0.797, Y -0.72, Q -0.898, T -0.477, E -0.854, S -0.497, A -0.932, W -0.792, K -0.47
E40: A 0.243, D -0.388, P -0.744, G -0.217, T -0.222, V -0.573, R 0.217, S -0.187, L -0.652, K 0.29, Q 0.188, M -0.125
A42: R -0.243, C -0.197, P -0.223, F -0.002, T -0.503, Q -0.021, H -0.031, S -0.133, E -0.089, L 0.178, G 0.455, N 0.315
R54: G -0.491, E -0.254, N -0.668, K 0.257, W -0.668, L -0.963, S -0.588, V -0.53, A -0.351, D 0.095, Q 0.052, P -0.292, H 0.83, M -0.518
H44: L -0.692, K 0.555, C -0.016, G 0.292, P -0.95, W -0.483, S 0.03, V -0.156, M -0.039, Y -0.804, Q 0.119, T -0.107, A -0.051
Y52: P -0.075, S 0.155, G -0.659, V -0.682, H -0.368, M -0.045, L -0.284, W -0.978, T -0.678, R -0.53, E -0.165, F -0.367, K -0.528, A 0.089
V53: L 0.13, S -0.819, W -0.634, A -0.766, C 0.039, P -0.579, T -0.872
I47: S -0.659, C -0.226, L 0.065, A -0.532, W 0.461, M 0.561, F 0.349, Y 0.304, V 0.228, E -0.727, T -0.701, N -0.25
V51: Q 0.126, M 0.149, E -0.31, F 0.246, A 0.616, Y -0.242, L -0.083, H 0.216, S 0.579, W -0.18, K 0.525, I 0.201, R 0.643, D 0.148, P 0.173, G 0.146
L56: V -0.207, K -0.417, A -0.882, Q -0.848, T -0.448, W -0.982, C -0.169, P -0.45, R -0.874, I -0.021, S -0.006, M -0.029
A57: T -0.022, K 0.933, Q 0.18, C -0.092, N 0.105, D 0.507, P 0.297, R -0.053, S 0.236, V -0.47
H58: P 0.358, R -0.078, Y 0.141, S 0.088
V48: Q -0.656, L -0.717, K -0.56, A -0.687, W -0.809, R -0.551, T -0.727, G -1.09, M -0.556, C -0.502
A41: G 0.154, C 0.001, T 0.043, I -0.482, S 0.232, L -0.208, R 0.049, N -0.024, Y -0.448, Q -0.287, K 0.033, E -0.851, V -0.633
Q45: T 0.516, K 0.09, L -0.713, S -0.004, E 0.039, R -0.037, C -0.103, G -0.754, V 0.1, W -0.889, I 0.027, A -0.171, D -0.498, P -0.565
G46: C -0.361, R -0.58, Y -0.897, E -0.023, V -1.03, S -1.04, L -0.227, K -0.459, W -0.452

Variants of: B2
Assay: as above
Conditions: Homo sapiens

Abundance fitness, by site and new letter:
L6: F -0.102, H 0.051, E 0.128, I -0.428, K 0.155, S -0.136, P -0.211, A 0.194, Y -0.261, C -0.436, M 0.1, G -0.171, N -0.017, R 0.051, Q 0.213, V 0.054
Q7: A -0.348, C -0.616
L3: P -0.729, V -0.366, W -1.54, I -0.086, R -0.258, G -0.45, H -0.362, S -0.066, E 0.203, Y -0.549, Q 0.153, A -0.162, F -0.341, C -0.896, K -0.088, D -0.454, N -0.287, M 0.156, T -0.024
E1: M -0.139, D -0.377, F -0.386, H -1.02, I -0.132, R -0.992, V -0.661, T -0.692, Y -1.05, K -0.165, S -0.737, W -0.537, A -0.62, C -1.18, L -0.687
V4: D -0.01, R -0.544, N -0.139, K -0.568, T -0.19, C -0.46, G -0.227, W -0.468, E -0.139, Q -0.563, F -0.109, I -0.013, P -0.658, Y 0.077, S -0.264, L -0.201, M -0.079, H -0.463
K5: Y -0.27, F -0.443, C -0.531, G -0.407, A -0.234, I -0.436, R -0.269, E -0.026, S -0.531, Q -0.019, L -0.394, P -0.54, V -0.611, H -0.223, W -0.383, M -0.143
E2: C -1.08, A -0.665, G -0.868, M -0.636, T -0.591, N -0.049, H -0.195, W -0.97, R -0.661, Y -0.452, P -0.9, V -0.762, Q -0.472, I -0.369, F -0.274, S -0.327, L -0.632, K -0.703
